This note sets out measurements from the DeepSol protein solubility set.

This data set can be described thus: soluble on expression in E. coli; label from the status in PepcDB or PDB records.
Take “MLVENLAHFSADTRFEADLVIIGGGPAGLTVARELRGAPLRVLIVESGLLEEAPQANELSTLESIGEPNAPHQIQKRIAFHGANCRSWTQDLQPYGVRCRALGGSTHAWAGKSAAFDDIDFQERAWVPHSGWPMDRSSLDPFLDRAADILNLGPNRYDDTLWTLLGISPPEPQLGTQGLRSFFWQFSRSRVDPLDIMRFGADFLRLEADNIRVLLNATATRLDLTQEGDGFRGLEIATNDGQRHTVHAKAAVIAGGGIENARLLLASTTIHANGVGNQYDLVGRFLMDHAGARIARFGGSNANQIMRRFGFYGLRNSGRTSMYMHGLAITPEMQEREHLLNSAIYFMPEHAADDPWDAVKRLLTGKSKRQVKDAMRAIAGAGLLGKGAAMKLLSSDRLPVAVKDFIVQTAIRYMPNVAADDFLSRGVPHKVTDVWIDAISEQQPDPDSRITLSEKTDRLGLPLARVNWKINADERRTIMRLGHIVESAFAQARLPKPILEPWVAEGAFNDAVIIDMAHSMGTTRMSASARSGVVDEQCQVHGVRDLYIAGSSIFPTSGHANPTLMIVAFAVRLADRIRQTLL”: the “soluble on expression in E. coli” value is given as “not soluble”.

Consider “MANEMKVFLLTKQGQEVMERQRKKQVLLSDPKAVYQDHFVSVRPDCLVVKKYFIPSMLPFEFHWDKIETMTYLPQNNENKLLVPNRGQDQEGRWWATDVLRPHERELHLYNVRIDVADTEPSKSGFTVIHIDQFLKSCRHLLPYSCKLSGCVWSE”, for which the “soluble on expression in E. coli” value is given as “not soluble”.

With “GNWAEITDEISKIYQDNQYKIRQINDVDAVSDKRREALQALFEHTGRNVIVYYSAWLENGRRFSGQSTDFSVNDTDKNSFMTALHKLDQSKGLDLILHTPGGDVAATESLVDYIHALFGQDFRVIVPQLAMSAGTMIALSSKEIVMGKHSSLGPIDPQFNGLPAHGLLEEFEQAKKEVSENPQTAHIWQVILNKYNPTMLGEAKKAIQWSNSMVKQWLEKGMFLDEPDKEEKATRAIKELADHSVTLAHNRHISVSKALELGLNIKELESDPKLQDLVLTLHHLSVIAAQRGPLIKFVVNHDNRGTF”, the “soluble on expression in E. coli” value is given as “not soluble”.

As for “MLCQKCQKRVANVQMTQIINNNKTVIYLCEQCAREEGKFNVISPFSINDFFSGFMGFPYMASAPQQNQDVVCETCGMSYEEFKKVGKLGCSNCYKTYGDRLVPLLRRLHGNIQYNGKFPSRAFGSIKISREIEKLKEQLNIAIKNEEYEKAAILRDQIRNLESNQNNM”, the “soluble on expression in E. coli” value is “not soluble”.

Consider “GSHMVPEPDLPHDLRHLNTEPMEIFRNSVKIEEIMPNGDPLLAGQNTVDEVYVSRPS”, for which the “soluble on expression in E. coli” value is given as “soluble”.

With “QAAPSQVVVIRQERAGQTSVSLLWQEPEQPNGIILEYEIKYYEKDKEMQSYSTLKAVTTRATVSGLKPGTRYVFQVRARTSAGCGRFSQAMEVETGKP”, the “soluble on expression in E. coli” value was “soluble”.

As for “MMCISKLPAVLLILSVALNHLRATPVRSGSNPQMDKRKCNTATCATQRLANFLVRSSNNLGPVLPPTNVGSNTYGKRNAAGDPNRESLDFLLV”, the “soluble on expression in E. coli” value is reported as “not soluble”.

On to “MAHHHHHHMRGMWATLRLFRCDRNFTALNRGNGVYNIQSVASRDCALCHSQRAVKHRSLSPDDPFGEKSASDDPVDGFYGAWSNINVDAFANAAASEEVRMAHFGPEWSRFTTIGRLSVKKMNESGSSASSGSEDCGMASQHPLGAEELHMRELRERRKVLERNYSSYDEYVAKELGLSEVDDCDNACGLQSEDPEIVADGEEAEDNDDADEDADNVPLPQFMRRSGCEQENDTGVNIYSSDQQQQQQMGGVPANTVNEGHVPQRRGTLHPPEPLAQVVFCQLGEPHGDSELPREDPLHWDTEEVILWIRRMEAAQCVLSSGSLACDSLVMEDPSMQEAFRMARIDGDYLLKNTVPATMFQVMRRWHLRRHEIVLAVLKEQQRRGIDSHEINTSIFDDPIMRGILDSGRAKLDEVVLMVTPMLVQETICQGYLYCR”, for which the “soluble on expression in E. coli” value is given as “not soluble”.

Turning to “MGHHHHHHSHMLDDQEAKREAETFKEQGNAYYAKKDYNEAYNYYTKAIDMCPKNASYYGNRAATLMMLGRFREALGDAQQSVRLDDSFVRGHLREGKCHLSLGNAMAACRSFQRALELDHKNAQAQQEFKNANAVMEYEKIAETDFEKRDFRKV”, the “soluble on expression in E. coli” value is reported as “not soluble”.

For the sequence “MGSDKIHHHHHHMAATFGPRIARADENGQGSEHVALSWQKMDASGWRSGEASPAALHSDHHCRRGFAMSTRDADDRREYYRIEDTLALEFRPAGAVEDGLESEPGATLFSLLSDLHLMDYESQHLLRHISERDRTLANYLKVMNKRIDLLGQVMVQSLLKEIGEPRKVSLSEGGVSFRHDRALPVGQLLVLRMVLLPQGFGLELRARVIHAQPHDDEFEIGTEFEALSDAQRQLLARHILQKQAQQRRLARAGQGPLGEPGQPSST”, the “soluble on expression in E. coli” value is on record as “not soluble”.

As to “MGSDKIHHHHHHVSSPNIDIELDALKEAVSVALAHAKKLGSSAAEVAISKQQGLSVSTRTQEVETVEFNKDGALGITVYRGGCKGSSSTSDLSTDAIALAVKAADDIARYTSEDPFSGLADSALMAKNIRDLQLYYPQDIGAEELADLAIRAEKAGVDADTRIKYSDGATANAHTSAKVYANSHGFLQGYCSSRYSLSSVVIGEESDGNMQRDYDYTVSRKFADLLSPEEVGAKAAEKTLSRLDARKIATAKLPVLFAPEIATGLIGHLIGAISGGSLYRKSSFLLDSLHTHIFPDWFSIEEQPHILSGLASANYDSEGVATQDRRIIDRGQLETYLLTSYSARKLGMTNTGHAGGIYNWTLSHSNQTFADLIKAMNTGLIVTEVMGQGVNGVTGDYSRGAAGFYVENGVIQYPVEEITIAGNLKDMFIGIQGVAMDRDLRSSIRTGGILLSEMKIAGN”, the “soluble on expression in E. coli” value is recorded as “not soluble”.

As to “MGSDKIHHHHHHMNIPIKTLHYFLTLVETGNFTRAAEKSFITQPTLSKIIQRLEENLGQQLLHRNNQKIELTQAGILLENSAREILGQWHRLQEDLTNLSGLKSGHLRLGVCPMMSSLIIDLLTAFRQQYPGIELQMYEYGGFGCEQALLNNSLDIAFTALPTTHDIELANRALTRYPLLACLPKDHALAQQEAVTWQDFEAYPFILYNEDFSLAKLITRLSHKAGVQLNIAFRSGQWDFLATMVEAQMGVAILPEPICHKLQGSELVFKPIRPNLTWDLALIWRKDLPLTPAAQALLDLSEQAHLHP”, the “soluble on expression in E. coli” value is on record as “not soluble”.

Turning to “MGSDKIHHHHHHMKNTPIERNVIDETINEFQIVDFSKATIREVKAIASKAEAVSGVEFIKMEMGVPGLPASAVGVKAEIEALQNGIASLYPDINGLPELKKEASDFIKAFINVDLSPEGCVPVTGSMQGTFASFLTCSQCDEKKDTILFIDPGFPVQKQQLVVMGQKYETFDVYDYRGDKLKEKLESYLRKGNISAIIYSNPNNPSWICLKDEELRIIGELATQYDVIVLEDLAYFAMDFRQDLSTPYQAPFQPSVAHYTDNYVLLISGSKAFSYAGQRIGVSCISDKLYHRSYPGLTKRYGGGTFGTVFIHRVLYALSSGTSHSAQYAMAAMLKAANEGQYNFLSEVKVYGDRAQKLKEIFLRHGFYLVYDNDLGDPIADGFYFTIGYPGMTSGELAKELMYYGVSAISLVTTGSHQEGLRACTSFIKDHQYAQLDERMKLFAEHHPIA”, the “soluble on expression in E. coli” value was “not soluble”.

As for “FNFGASYKNFSFSAQFGASWGTYALVQTDLRQEKYDDLEYKNVSAMWKDMYVYEDVLDAGGNVVAPMNRSAKYPNLRYSAINGQASTFWKVSAASVRLRNLTVAYSLPKEWTNRIGISSCRLNLTAQNLLNFYNPYPDGVWSTWGGTYGRYPNLRKVTLGVNVSF”, the “soluble on expression in E. coli” value was “not soluble”.

On to “MKAVSPVRPSGRKAPSGCGGGELALRCLAEHGHSLGGSAAAAAAAAAARCKAAEAAADEPALCLQCDMNDCYSRLRRLVPTIPPNKKVSKVEILQHVIDYILDLQLALETHPALLRQPPPPAPPHHPAGTCPAAPPRTPLTALNTDPAGAVNKQGDSILCR”, for which the “soluble on expression in E. coli” value is reported as “soluble”.

Regarding “MGSDKIHHHHHHMQEQINLSEWRERARSFEQSANKVVLGLERQVRALTIAIFSRGHVLLEGDVGVGKTTLLKAASRLLGGAYQRIEGAIDLMPGDFLYHAYIDQNGQPAVAPGPLLRHEENLAVFFFNEINRARPQAHSLLLRLMAERSVNAFNRDYAFPHLTVFADRNGLEREETFELPAAARDRFFMEVSVTAPEDKELQRDLMFSTRFHDADALIETLEPGLVPYDKLNAVSAAIQESVRSELALQDYAVNIWQALRHPERIGIEIEDVDISRLVAGGASPRGMAMLMRAARTRAWLEGRDYLTPDDIRAVFPETVGHRVFFTPAYELRRDEIAPALLSGVLNKIPAP”, the “soluble on expression in E. coli” value is reported as “not soluble”.

Take “MNMVSQGVKGGEYRSPQKNYTQLTFKNVDAIGHPQGAISQMLNSTGYYCQSQTTPFVPYFLSSLDFFAWRQAIPEMFYPEALVPGMREIRGNGETWGNIFPRSGAVTQVDDYKASAVSVHRVADFLTRMAQPHIYLPTAKQEQGQNGHWYPDPVQEGEVGNHKWQQLHPQLSQSCSIFPDTPPAQLSENGSYAWALWRPYKCCKRRGQTFLYSVDWSNLEHHHHHH”: the “soluble on expression in E. coli” value was “not soluble”.

“DLVPQIIWTGSSDGFIDYYNKRWYEYTGFDGKAFGDKSWVPVMHPDDVQEVLDCWYGSVKKGTPYQIELRMKSAETGEYRWFLSKALPIKDKTGVITKWFGTCTDI”: the “soluble on expression in E. coli” value is “not soluble”.

For “MSLNQQKKQAPVELKVGQTFPLTIKRLGINGEGVGYFKKKVVFVPGALPGEEVVVQATKVQPKFSEGRIKKIRKASEHRVAPPCPVYEQCGGCQLQHLAYSQQLREKRDIVIQSLERHTKFKVENMEIKETIGMDNPWNYRNKSQFQIGRSQSGSIIAGLYGLDSHDIVPIKDCIVQHPATNKTTGIVRRILEDFNVSVYNERKRKGDVRTIVTRVGFETGEVQVVLVTAKETLPHKEEIVKAIQKRLPEVKSIIQNVNGAKTSVIFGEKTKQLAGKTVIQEVLGDVSFELSARAFFQLNPEQTVKLYDEVKKAAQLTGKEKVVDAYCGVGTIGMWVADGAKEVRGMDVIKESIDDAKKNAKKHGMANATYVTGTAEHWLPKWTKEGFRPDVVIVDPPRTGCDSTFLDTIKKVKPKRFVYVSCNPSTLAKDLQTLSKDYRVDYIQPVDMFPQTAHVEAVARLVLKSSNEGHHHHHH”, the “soluble on expression in E. coli” value is listed as “not soluble”.

On to “MKIGIIGATGRAGSRILEEAKNRGHEVTAIVRNAGKITQTHKDINILQKDIFDLTLSDLSDQNVVVDAYGISPDEAEKHVTSLDHLISVLNGTVSPRLLVVGGAASLQIDEDGNTLLESKGLREAPYYPTARAQAKQLEHLKSHQAEFSWTYISPSAMFEPGERTGDYQIGKDHLLFGSDGNSFISMEDYAIAVLDEIERPNHLNEHFTVAGKLEHHHHHH”, for which the “soluble on expression in E. coli” value is given as “soluble”.

Consider “MKVYLHFSPQFFANTYLIGNEITKEAVIIDPAKITEKMIHQIEKNEFNLKAVLLTHDLEHPYETGLNTILKIYSPKVYAGSCFSENVTINTLRGDGCIDVAGYSVRYFAIPAHSSYSYMFQIENMVFTGTSLSAGMIGQTSNMYAERTLRNILKTKLMCFEDNLIIMPFYGPPTSIGVERKYNASFFQDFEKKPFLEHHHHHH”, for which the “soluble on expression in E. coli” value is “soluble”.

Regarding “PQEKLIFTLDSADRAYRVLVEAMNEGTATLASDGTILYCNRQFAELTKMSSGAVVGTSIYGFIAPEDAITFKALLKQKNSVGELKFRAQGGTSVPVYLSISSLQSEGSPSAWCLVVTDL”, the “soluble on expression in E. coli” value is given as “not soluble”.

As to “MAHHHHHHMGDNGGMVLFKAIAGAIEDGEDKLEYLNLEVNELGEKTAKAMQRVLSSSTALKTLRLSYNSFGGASKYIMEGLAENKYLRSLFLSFCEIREADGAAIGTALTANSTLQHLDLSNNKLKDAGSKCIAEAMKTNEGLISLNLSCNKIADDGGKAIALFLTSNRTLRELNLRRNCMSNATGELLDDQLRGNMTLEKMNVGFNDFRYKSLIGHRTTLARNAEKNKSLIVPKLRAEIEGLSFKERDLSQAEDEIEMERRIIKDRSEQLLRRNEEARVASEKARREIADLEKNLAAVRVRFESAEEVLLRTEERVSNEMAEISGRKANMEARVQQEREKVDRLQREMDRVRRQLKQLEEAEASRLKPLFLEFGIAEADRDREAKECQYEADKLAALELQRKELEKKLGLSLPVAGGVSAPTAKKRK”, the “soluble on expression in E. coli” value is reported as “not soluble”.
